Assay results taken from patent publication US20120041177A1 (SPIBER TECHNOLOGIES AB C O RISING, published 2012).

B1: NT, N-terminal fragment of major ampullate spidroin (MaSp) 1 from Euprosthenops australis (other)
chain: GSGNSHTTPWTNPGLAENFMNSFMQGLSSMPGFTASQLDDMSTIAQSMVQSIQSLAAQGRTSPNKLQALNMAFASSMAEIAASEEGGGSLSTKTSSIASAMSNAFLQTTGVVNQPFINEITQLVSMFAQAGMNDVSA
notes: Expressed as a C-terminal fusion to His6TrxHis6 and released by thrombin
B2: NTHis (other)
chain: MSHTTPWTNPGLAENFMNSFMQGLSSMPGFTASQLDDMSTIAQSMVQSIQSLAAQGRTSPNKLQALNMAFASSMAEIAASEEGGGSLSTKTSSIASAMSNAFLQTTGVVNQPFINEITQLVSMFAQAGMNDVSASASAGASAAASAGAAALEHHHHHH
notes: Soluble protein, used at 5 mg/ml; also called NT as an N-terminal fusion to His6; soluble NT
B3: NT2-Brichos (other)
chain: MGHHHHHHMSHTTPWTNPGLAENFMNSFMQGLSSMPGFTASQLDDMSTIAQSMVQSIQSLAAQGRTSPNKLQALNMAFASSMAEIAASEEGGGSLSTKTSSIASAMSNAFLQTTGVVNQPFINEITQLVSMFAQAGMNDGGGTPWTNPGLAENFMNSFMQGLSSMPGFTASQLDDMSTIAQSMVQSIQSLAAQGRTSPNKLQALNMAFASSMAEIAASEEGGGSLSTKTSSIASAMSNAFLQTTGVVNQPFINEITQLVSMFAQAGMNDVSAGNSEHLVTTATFSIGSTGLVVYDYQQLLIAYKPAPGTCCYIMKIAPESIPSLEALTRKVHNFQMECSLQAKPAVPTSKLGQAEGRDAGSAPSGGDPAFLGMAVSTLCGEVPLYYI
notes: Soluble fusion protein with His6, used at 5 mg/ml; also called NT-NT-Brichos; NTNTBrichos
B4: NT4RepCT (as an N-terminal fusion to His6) (other)
chain: MKASHTTPWTNPGLAENFMNSFMQGLSSMPGFTASQLDDMSTIAQSMVQSIQSLAAQGRTSPNKLQALNMAFASSMAEIAASEEGGGSLSTKTSSIASAMSNAFLQTTGVVNQPFINEITQLVSMFAQAGMNDVSASASAGASAAASAGAASGQGGYGGLGQGGYGQGAGSSAAAAAAAAAAAAGGQGGQGQGGYGQGSGGSAAAAAAAAAAAAAAAGRGQGGYGQGSGGNAAAAAAAAAAAAAAAGQGGQGGYGRQSQGAGSAAAAAAAAAAAAAAGSGQGGYGGQGQGGYGQSSASASAAASAASTVANSVSRLSSPSAVSRVSSAVSSLVSNGQVNMAALPNIISNISSSVSASAPGASGCEVIVQALLEVITALVQIVSSSSVGYINPSAVNQITNVVANAMAQVMGKLAAALEHHHHHH
notes: also called NT4RepCTHis
B5: NT4Rep (other)
chain: GSGNSHTTPWTNPGLAENFMNSFMQGLSSMPGFTASQLDDMSTIAQSMVQSIQSLAAQGRTSPNKLQALNMAFASSMAEIAASEEGGGSLSTKTSSIASAMSNAFLQTTGVVNQPFINEITQLVSMFAQAGMNDVSASASAGASAAASAGAASGQGGYGGLGQGGYGQGAGSSAAAAAAAAAAAAGGQGGQGQGGYGQGSGGSAAAAAAAAAAAAAAAGRGQGGYGQGSGGNAAAAAAAAAAAAAAAGQGGQGGYGRQSQGAGSAAAAAAAAAAAAAAGSGQGGYGGQGQGGYGQS
notes: Non-natural minispidroin derived from Euprosthenops australis MaSp1; Released from His6TrxHis6 by thrombin
B6: NT5Rep (other)
chain: GSGNSHTTPWTNPGLAENFMNSFMQGLSSMPGFTASQLDDMSTIAQSMVQSIQSLAAQGRTSPNKLQALNMAFASSMAEIAASEEGGGSLSTKTSSIASAMSNAFLQTTGVVNQPFINEITQLVSMFAQAGMNDVSASASAGASAAASAGAPGYSPAPSYSSGGYASSAASAAAAAGQGGPGGYGPAPNQGASSAAAAAAGSGQGPSGPYGTSYQISTQYTQTTTSQGQGYGSSSAGAAAAGAAGAGQGGYGGQGQGGYGQGAGGAAAAAAAAAAAAAAAGQGGQGGGGYGQGGQGGQGGQGQGGYGQGAGSSAAAAAAAAAAAAAAGRGQGGYGPGSGG
notes: as for B5

What was measured:
[1] = biological target: the molecule itself; experiment: self-association; dynamic light scattering and turbidimetry; reversed by an increase of pH, blocked by high levels of salt
Method: The effect of pH and ionic strength on the hydrodynamic diameter of NT and NTΔHis6 (to exclude that pH dependent effects are caused by His at position 6) was measured at 25±0.1° C. in a Zetasizer Nano S from Malvern Instruments (Worcestershire, UK) equipped with a 633 nm HeNe laser. The buffers were filtered through nylon filters prior to use. The sample volume was 50 μl and ZEN2112 low glass cuvettes were used. The attenuation and measurement positions from the cuvette wall (4.65 mm) were kept constant for all analyses. Six scans were performed for each sample. All samples were analyzed in triplicate. The hydrodynamic diameter (dH) was calculated using the General Purpose algorithm in the Malvern software for DLS analysis, which correlates the diffusion coefficient to the hydrodynamic diameter through the Stokes-Einstein equation: […]
NT was subjected to dynamic light scattering at pH 6-7 and 0-300 mM NaCl. See also Table 3

NT2-REP4-CT = biological target: T1, NT2-REP4-CT; experiment: capture of soluble protein on fibers at pH 6, release at pH 7, SDS-PAGE; 300 mM NaCl decreased capture at pH 6
T1 construct: Stood in the assay as a solid fiber; also called NTNT-REP-CT; HisNTNT4RepCT
T1 chain: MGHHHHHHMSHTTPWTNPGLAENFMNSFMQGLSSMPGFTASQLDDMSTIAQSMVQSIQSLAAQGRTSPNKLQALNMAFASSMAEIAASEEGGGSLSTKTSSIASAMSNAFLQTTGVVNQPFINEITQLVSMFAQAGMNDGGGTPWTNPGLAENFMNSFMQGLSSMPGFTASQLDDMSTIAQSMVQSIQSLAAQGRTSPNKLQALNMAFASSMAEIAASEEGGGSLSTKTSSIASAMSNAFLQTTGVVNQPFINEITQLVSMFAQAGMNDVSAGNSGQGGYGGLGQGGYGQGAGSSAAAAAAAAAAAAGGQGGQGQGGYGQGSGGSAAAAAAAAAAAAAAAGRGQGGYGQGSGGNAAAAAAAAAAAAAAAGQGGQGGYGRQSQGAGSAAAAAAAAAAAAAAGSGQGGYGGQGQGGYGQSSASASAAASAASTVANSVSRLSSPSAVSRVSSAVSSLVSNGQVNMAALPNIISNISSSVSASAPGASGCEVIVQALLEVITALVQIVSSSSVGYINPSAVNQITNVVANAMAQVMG
Method: (§1) Fibers (˜0.5 cm long, ˜50 ug) of NT-REP₄-CT (SEQ ID NO 20), NT₂-REP₄-CT (SEQ ID NO 23) and REP₄-CT (SEQ ID NO 2, control) were submerged in 100 μl solution of 5 mg/ml soluble NTHis (SEQ ID NO 30) or NT₂-Brichos (SEQ ID NO 32) at pH 8 for 10 minutes. The pH was decreased by addition of 400 ul sodium phosphate buffer (NaP) to pH 6 and incubated for 10 minutes to allow assembly of soluble NT to the fiber. The fibers were transferred to 500 μl of NaP at pH 6, and washed twice. Finally, the fibers were transferred to 500 μl of NaP at pH 7, and incubated 10 minutes to allow release of soluble NT. The same was done in the presence of 300 mM NaCl in all pH 6 NaP buffers. Samples from the different solutions were analysed on SDS-PAGE.

NT-REP4-CT = biological target: T2, NT-REP4-CT; experiment: as above
T2 construct: Stood in the assay as a solid fiber (about 0.5 cm, about 50 ug) or as a cast film; also called NT4RepCT
T2 chain: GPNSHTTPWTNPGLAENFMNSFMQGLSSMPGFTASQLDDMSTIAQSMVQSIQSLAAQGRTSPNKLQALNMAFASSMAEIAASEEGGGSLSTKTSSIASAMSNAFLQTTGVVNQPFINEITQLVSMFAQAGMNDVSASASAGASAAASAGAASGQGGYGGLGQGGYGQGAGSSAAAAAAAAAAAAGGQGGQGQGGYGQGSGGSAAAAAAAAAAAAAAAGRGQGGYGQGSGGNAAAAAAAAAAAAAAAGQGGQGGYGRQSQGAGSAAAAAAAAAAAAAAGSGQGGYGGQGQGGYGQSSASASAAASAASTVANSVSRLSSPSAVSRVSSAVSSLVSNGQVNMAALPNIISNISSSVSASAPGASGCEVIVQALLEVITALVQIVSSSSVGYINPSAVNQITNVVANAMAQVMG
Method: as §1

[2] = biological target: the molecule itself; experiment: self-polymerisation at pH 6; macroscopic formation and SEM
Method: Conditions for fiber formation were essentially as described in Stark, M. et al. Biomacromolecules 8, 1695-1701, (2007). Approximately 25 μM of each protein was incubated in 20 mM Na phosphate buffer at pH 7 or 6, with or without 300 mM NaCl. At different time points, samples were applied on SEM stubs, where they were air-dried and vacuum-coated with gold and palladium. The samples were photographed with a LEO 1550 FEG microscope (Carl Zeiss, Oberkochen, Germany) using an acceleration voltage of 5 kV.
The arrows in FIG. 3 indicate when macroscopic formations first were detected, showing that at pH 7 the presence of NT delays polymerisation, while at pH 6 it accelerates polymerisation. This is independent of whether the C-terminal fragment (filled circle) is present or not (indicated by the striped circle). Moreover, the presence of NT results in more ordered polymerisation, exemplified by the scanning electron micrographs in FIG. 3, which are representative early polymers for all constructs at pH 7 (above time scale) or for NT4RepCT at pH 6 (below time scale).

[3] = biological target: the molecule itself; experiment: self-polymerisation at pH 6; macroscopic formation, SEM and turbidimetry
[4] = biological target: the molecule itself; experiment: self-polymerisation at pH 6

Row | Binder | binding result (NT2-REP4-CT) | binding result (NT-REP4-CT) | also measured
1 | B1 |  |  | binding result [1]: binds
2 | B2 | binds | binds | 
3 | B3 | binds | binds | 
4 | B4 |  |  | binding result [2]: binds
5 | B5 |  |  | binding result [3]: binds
6 | B6 |  |  | binding result [4]: binds
